According to publication PMC1964790, “An ectromelia virus profilin homolog interacts with cellular tropomyosin and viral A-type inclusion protein” (Virology Journal, 2007):

Biological target: the molecule itself
Assay: SDS-PAGE with western blot

B1: His-tagged ectromelia virus strain Moscow gene 141 profilin homolog (ECTV-PH) (natural protein)
chain: MAAEWHKIIEDVSKNNKFEDAAIVDYKTKKNVLAAIPNRTFAKIIPGEVIALITNRNILKPRIGQKFFIVYTNSLMDENTYTMELLTGYAPVSPIVIARTHTALIFLMGKPTTSRREVYRTCRDYATNVRATGN
notes: also called ECTV-Moscow 141; His-ECTV-PH; not shown: His6, N-terminal, kept
stoichiometry N: 2
